Results as given in paper PMC7229829, “Distortion of double-stranded DNA structure by the binding of the restriction DNA glycosylase R.PabI” (Nucleic Acids Research, 2020).

B1: R.PabI(Y68F-K154A) mutant (enzyme, Pyrococcus abyssi, UniProt Q9V2B6 8-226, looked up)
chain: EASVSFENGKIVVRLPITRPTSKIRVKKIENGVGIPVSTRKKSFPSDENLRDYYIEWQISFARDGKYDYELSRMVRLAHEHGILTYNDIYELLKFADDVKSYLEDKGIRRESTNEELYGFNIYEDVYPVAKKELPSGEFIGIVLKHAQRAVGYQSMVYVCIPLTNVEPSLAGRVARRNEVVKYEVPVDLMKELLKAFIIASETHKNDIVKFLRSIIGTS
notes: R.PabI, restriction DNA glycosylase of Pyrococcus abyssi, residues 8-226, cloned into pET26b; Mr = 25 287 printed; the vector pET26b can add a C-terminal His tag, but the printed Mr fits residues 8-226 without a tag; also called Y68F-K154A double mutant of R.PabI; source: E. coli Rosetta(DE3)pLysS, purified (heat 80°C, TOYOPEARL AF-Heparin, Mono S)
B2: R.PabI(K154A-P27G-T28G) mutant (enzyme, Pyrococcus abyssi, UniProt Q9V2B6 8-226, looked up)
chain: EASVSFENGKIVVRLPITRGGSKIRVKKIENGVGIPVSTRKKSFPSDENLRDYYIEWQISYARDGKYDYELSRMVRLAHEHGILTYNDIYELLKFADDVKSYLEDKGIRRESTNEELYGFNIYEDVYPVAKKELPSGEFIGIVLKHAQRAVGYQSMVYVCIPLTNVEPSLAGRVARRNEVVKYEVPVDLMKELLKAFIIASETHKNDIVKFLRSIIGTS
notes: R.PabI, restriction DNA glycosylase of Pyrococcus abyssi, residues 8-226, cloned into pET26b; Mr = 25 219 printed; Called a dimer in the methods (loaded '2 μM as a dimer'); source: E. coli Rosetta(DE3)pLysS, purified (heat 80°C, TOYOPEARL AF-Heparin, Mono S)
B3: R.PabI(Y68F-P27G) mutant (enzyme, Pyrococcus abyssi, UniProt Q9V2B6 8-226, looked up)
chain: EASVSFENGKIVVRLPITRGTSKIRVKKIENGVGIPVSTRKKSFPSDENLRDYYIEWQISFARDGKYDYELSRMVRLAHEHGILTYNDIYELLKFADDVKSYLEDKGIRRESTNEELYGFNIYEDVYPVAKKELPSGEFIGIVLKHKQRAVGYQSMVYVCIPLTNVEPSLAGRVARRNEVVKYEVPVDLMKELLKAFIIASETHKNDIVKFLRSIIGTS
notes: R.PabI, restriction DNA glycosylase of Pyrococcus abyssi, residues 8-226, cloned into pET26b; Mr = 25 304 printed; Called a dimer in the methods (loaded '2 μM as a dimer'); also called Y68F-P27G double mutant; source: E. coli Rosetta(DE3)pLysS, purified (heat 80°C, TOYOPEARL AF-Heparin, Mono S)
B4: R.PabI(Y68F-P27G-T28G) mutant (enzyme, Pyrococcus abyssi, UniProt Q9V2B6 8-226, looked up)
chain: EASVSFENGKIVVRLPITRGGSKIRVKKIENGVGIPVSTRKKSFPSDENLRDYYIEWQISFARDGKYDYELSRMVRLAHEHGILTYNDIYELLKFADDVKSYLEDKGIRRESTNEELYGFNIYEDVYPVAKKELPSGEFIGIVLKHKQRAVGYQSMVYVCIPLTNVEPSLAGRVARRNEVVKYEVPVDLMKELLKAFIIASETHKNDIVKFLRSIIGTS
notes: R.PabI, restriction DNA glycosylase of Pyrococcus abyssi, residues 8-226, cloned into pET26b; Mr = 25 260 printed; Called a dimer in the methods (loaded '2 μM as a dimer'); also called Y68F-P27G-T28G triple mutant; source: E. coli Rosetta(DE3)pLysS, purified (heat 80°C, TOYOPEARL AF-Heparin, Mono S)
B5: R.PabI(K154A) mutant (enzyme, Pyrococcus abyssi, UniProt Q9V2B6 8-226, looked up)
chain: EASVSFENGKIVVRLPITRPTSKIRVKKIENGVGIPVSTRKKSFPSDENLRDYYIEWQISYARDGKYDYELSRMVRLAHEHGILTYNDIYELLKFADDVKSYLEDKGIRRESTNEELYGFNIYEDVYPVAKKELPSGEFIGIVLKHAQRAVGYQSMVYVCIPLTNVEPSLAGRVARRNEVVKYEVPVDLMKELLKAFIIASETHKNDIVKFLRSIIGTS
notes: R.PabI, restriction DNA glycosylase of Pyrococcus abyssi, residues 8-226, cloned into pET26b; Mr = 25 303 printed; Called a dimer in the methods (loaded '2 μM as a dimer'); PDB 3WAZ (cited) holds R.PabI(K154A) with product dsDNA; also called K154A mutant of R.PabI; source: E. coli Rosetta(DE3)pLysS, purified (heat 80°C, TOYOPEARL AF-Heparin, Mono S)
B6: R.PabI(Y68F) mutant (enzyme, Pyrococcus abyssi, UniProt Q9V2B6 8-226, looked up)
chain: EASVSFENGKIVVRLPITRPTSKIRVKKIENGVGIPVSTRKKSFPSDENLRDYYIEWQISFARDGKYDYELSRMVRLAHEHGILTYNDIYELLKFADDVKSYLEDKGIRRESTNEELYGFNIYEDVYPVAKKELPSGEFIGIVLKHKQRAVGYQSMVYVCIPLTNVEPSLAGRVARRNEVVKYEVPVDLMKELLKAFIIASETHKNDIVKFLRSIIGTS
notes: R.PabI, restriction DNA glycosylase of Pyrococcus abyssi, residues 8-226, cloned into pET26b; Mr = 25 344 printed; Called a dimer in the methods (loaded '2 μM as a dimer'); source: E. coli Rosetta(DE3)pLysS, purified (heat 80°C, TOYOPEARL AF-Heparin, Mono S)

Target: the molecule itself
Assay: SEC; Superdex 200 HR 10/30; 2 μM as a dimer loaded; 10 mM MES pH 6.0, 500 mM NaCl; oligomeric state estimated against standard proteins
For B1, the “stoichiometry N” value was 2.
B2: binds.
B3: binds.
B4: binds.
B5: binds.
B6: binds.
